The DeepSol protein solubility set

Assay: soluble on expression in E. coli; label from the status in PepcDB or PDB records

Row | Sequence | soluble on expression in E. coli
1 | GAMDPDLEATLRAIVHSATSLVDARYGAMEVHDRQHRVLHFVYEGIDEETVRRIGHLPKGLGVIGLLIEDPKPLRLDDVSAHPASIGFPPYHPPMRTFLGVPVRVRDESFGTLYLTDKTNGQPFSDDDEVLVQALAAAAGIAVANARLYQQAK | soluble
2 | GAMGDDSMRMSHLKVGSAADIPINISETDLSLLTATVVPPSGREEPCLLKRLRNGHVGISFVPKETGEHLVHVKKNGQHVASSPIPVVISQSEIGDASRVRVSGQGLHEGHTFEPAEFIIDTRDAGYGGLSLSIEGPSKVDINTEDLEDGTCRVTYCPTEPGNYIINIKFADQHVPGSPFSVKVTGEGRVK | soluble
3 | GAMGIVGVGIDLVSIPDFAEQVDQPGTVFAETFTPGERRDASDKSSSAARHLAARWAAKEAVIKAWSGSRFAQRPVLPEDIHRDIEVVTDMWGRPRVRLTGAIAEYLADVTIHVSLTHEGDTAAAVAILEAP | soluble
4 | GAMGPVDEQWIEILRIQALCARYCLTINTQDGEGWAGCFTEDGAFEFDGWVIRGRPALREYADAHARVVRGRHLTTDLLYEVDGDVATGRSASVVTLATAAGYKILGSGEYQDRLIKQDGQWRIAYRRLRNDRLVSDPSVAVNVADADVAAVVGHLLAAARRLGTQMSDT | soluble
5 | GAMGSMKPYLFDLKLKDTEKLDWKKGLSSYLKKSYGSSQWRTFYDEKATSELDHLRNNANGELAPSSLSEQNLKYYSFLEHLYFRLGSKGSRLKMDFTWYDAEYSSAQKGLKYTQHTLAFEKSCTLFNIAVIFTQIARENINEDYKNSIANLTKAFSCFEYLSENFLNSPSVDLQSENTRFLANICHAEAQELFVLKLLNDQISSKQYTLISKLSRATCNLFQKCHDFMKEIDDDVAIYGEPKWKTTVTCKLHFYKSLSAYYHGLHLEEENRVGEAIAFLDFSMQQLISSLPFKTWLVEFIDFDGFKETLEKKQKELIKDNDFIYHESVPAVVQVDSIKALDAIKSPTWEKILEPYMQDVANKYDSLYRGIIPLDVYEKESIYSEEKATLLR | soluble
6 | GASCSGGDKSKAPVVSTADIENAAEVIKYYNTSLGVLKDMVKEKDVNAVLDYMEQKGKTPALSAIVPPAVVSKDSAIVLNPGNCFNEETRRNLKQNYTGLFQARTEFYANFDTYLSYLKKKDVTNAKKLLDVNYQLSTQMSEYKQNIFDILSPFTEQAELVLLVDNPLKAQIMSVRKMSSTMQSILNLYARKHRMDGPRIDLKVAELTKQLDAAKKLPVVNGHEGEMKSYQAFLSQVETFIKQVKKVREKGEYSDADYDMLTSAFETSII | soluble
7 | GASTRDYEIQRERIELGRCIGEGQFGDVHQGIYMSPENPALAVAIKTCKNCTSDSVREKFLQEALTMRQFDHPHIVKLIGVITENPVWIIMELCTLGELRSFLQVRKYSLDLASLILYAYQLSTALAYLESKRFVHRDIAARNVLVSSNDCVKLGDFGLSRYMEDSTYYKASKGKLPIKWMAPESINFRRFTSASDVWMFGVCMWEILMHGVKPFQGVKNNDVIGRIENGERLPMPPNCPPTLYSLMTKCWAYDPSRRPRFTELKAQLSTILEEEKAQQEE | soluble
8 | GDDNEIEIPKAPVLEKAQLALAIKSEEGAVTKTGETTPTDADVNTLTVGVFGVDGWSVIYTKDATPNSDGTKDVGPQEVYAGEAHVVVVANAAPVIQTELAKAKDITDFIETTINLSDETLTKGLTMSSKVLDVTLVANTTNYIGYDDEVGDITVKDISGKEVYGAGPVPLVRDVASIALAGADIGNPENANYESKSFVLKEVFIASAKGVSSVASTEEWGTIEKDFFGDTHFGYLDYKVGLLFLTSPNNIDEGSYKKGLQTKYDALAKKHVENDPALNHEFYVYENTKGEVKSGESNVNEAYANHTLLIVKGDYTYLPQGAKESITKENCYYAIPVGEEVTIDGTEKRSKFYVQRNYKYEISLTIIGPGSEIPYDPMISTNVSASVKVEPWNVKTIHEEVE | soluble
9 | GDKAYTDAESYTKGLHKIYSVWALSGQDGSSSSDISGLDAGNTALLRCWWTLQEQPTDEMKNAWNDAWCTEVNYMTWTTNKVEPIEGVYQRCMYIVALVNEFLKNIPNAPESIDKESYIAQARFNRAFAYYVLMDMFALPPFITEKNYSIEPAPLSREDLFNWIEAELNEIKPNLPSPRSEYGVADQAVASALLARMYLNAEIYTGKARYTECINACNEVIKAGYQLADNYADLFKADNGENPDTKKEIIYPIIFDGDKTQSWGMAAIIIGARGAEDKDVLLAHSGVDQGWAGFRATSNLVHLFDFQNDEEPKASEIQDKRGIFYDKGRSIDITSSVSGTFETEGWSVFKFSNLNSNGQPGKNTLWVDTDFPMFRLGDIYLMYAEAVARGGEGSKASAVEYINALRKRAYGDDKHNISENWLEENNFRNLLDERGRELYWEGIRRTDLVRFDLLTSGSYTWDFKGGINTGVGVNKRYNVYPIPVTDLTVNGNLQQNEGY | soluble
10 | GDWLDLNTTSSVETGQAIVTLDDAQIALNGIYRLASGHSYYGDNYWYYGDCRAADVQARITKGDGKRVSPYYEYNVLASDNLNIVLPWNTVYKVIRQTNNLIQKIESGSIQSSDTKELNRIKSEALVMRGLSLFNLTRLFGMPYTNDKGASLGVPIETSPSDPTHKPSRSTVAQCYEQVVSDMSNALSGLRQETSNGYINYWAAQALLSRVYLNMGEYQKAYDAATDVIKNNGGRYQLYSYEEYPNVWGQDFQSESLFELYITLSEPSGGTGGEGAPMVYANEATVDWNNLILSEDFLNLLNEDPKDVRHCLTKESVIENNTGLPAAAMHEKVYLAKFPGKTGDDPKTNNICIIRLSEVYLNAAEAGLKKGTDIEEAQGYLNDIISRRTTDTSQQVSTETFTLDRILKERRKELVGEGEVFYDYLRNGLAIERKGSWHLETLKASNAQKIEATDLRIALPIPQSEIDANPNIQQNPR | soluble
11 | GEAPADRLKALVDAAVQPVMKANDIPGLAVAISLKGEPHYFSYGLASKEDGRRVTPETLFEIGSVSKTFTATLAGYALTQDKMRLDDRASQHWPALQGSRFDGISLLDLATYTAGGLPLQFPDSVQKDQAQIRDYYRQWQPTYAPGSQRLYSNPSIGLFGYLAARSLGQPFERLMEQQVFPALGLEQTHLDVPEAALAQYAQGYGKDDRPLRVGPGPLDAEGYGVKTSAADLLRFVDANLHPERLDRPWAQALDATHRGYYKVGDMTQGLGWEAYDWPISLKRLQAGNSTPMALQPHRIARLPAPQALEGQRLLNKTGSTNGFGAYVAFVPGRDLGLVILANRNYPNAERVKIAYAILSGLEQQGKVPLKR | soluble
12 | GEYKMILVVRNDLKMGKGKVAAQCSHAAVSAYKQIQRRNPEMLKQWEYCGQPKVVVKAPDEETLIALLAHAKMLGLTVSLIQDAGRTQIAPGSQTVLGIGPGPADLIDKVTGHLKLY | soluble
13 | GGGSGGSKKDEHKQQGELYMWDSIDQKWTRHYCAIADAKLSFSDDIEQTMEEDNPLGSLCRGILDLNTYNVVKAPQGKNQKSFVFILEPKQQGDPPVEFATDRVEELFEWFQSIREITWKIDTK | soluble
14 | GGHDVPLTNYLNAQYYTDITLGTPPQNFKVILDTGSSNLWVPSNECGSLACFLHSKYDHEASSSYKANGTEFAIQYGTGSLEGYISQDTLSIGDLTIPKQDFAEATSEPGLTFAFGKFDGILGLGYDTISVDKVVPPFYNAIQQDLLDEKRFAFYLGDTSKDTENGGEATFGGIDESKFKGDITWLPVRRKAYWEVKFEGIGLGDEYAELESHGAAIDTGTSLITLPSGLAEMINAEIGAKKGSTGQYTLDCNTRDNLPDLIFNFNGYNFTIGPYDYTLEVSGSCISAITPMDFPEPVGPLAIVGDAFLRKYYSIYDLGNNAVGLAKAI | soluble
15 | GGMEVLDLVTGPDSVTEIEAFLNPRMGQPPTPESLTEGGQYYGWSRGINLATSDTEDSPGNNTLPTWSMAKLQLPMLNEDLTCDTLQMWEAVSVKTEVVGSGSLLDVHGFNKPTDTVNTKGISTPVEGSQYHVFAVGGEPLDLQGLVTDARTKYKEEGVVTIKTITKKDMVNKDQVLNPISKAKLDKDGMYPVEIWHPDPAKNENTRYFGNYTGGTTTPPVLQFTNTLTTVLLDENGVGPLCKGEGLYLSCVDIMGWRVTRNYDVHHWRGLPRYFKITLRKRWVKNPYP | soluble
